Assay results reported in patent US20200138986A1 (FREDAX, published 2020).

Tests used:
[1] = target: T1, human glandular kallikrein 2 (hK2) (human, UniProt P20151 25-261); assay: cell-based or functional assay
[2] = target: T2, free prostate-specific antigen (fPSA) (human, UniProt P07288 25-261); assay: Time-resolved Eu fluorescence immunoassay: coat goat anti-human polyclonal, 5A10-Fab 15 ng/well, Eu-PSA titrated from about 0.15 to 20 ng/well [upper and lower panels]
T2 construct: In the IRMA, fPSA was spiked into female plasma and captured by mAb H117; also called hk3; human kallikrein 3

[3] = target: T1, human glandular kallikrein 2 (hK2); assay: method not stated (told in the Materials section of Example 10)

T1 sequence (P20151 25-261 limits assumed): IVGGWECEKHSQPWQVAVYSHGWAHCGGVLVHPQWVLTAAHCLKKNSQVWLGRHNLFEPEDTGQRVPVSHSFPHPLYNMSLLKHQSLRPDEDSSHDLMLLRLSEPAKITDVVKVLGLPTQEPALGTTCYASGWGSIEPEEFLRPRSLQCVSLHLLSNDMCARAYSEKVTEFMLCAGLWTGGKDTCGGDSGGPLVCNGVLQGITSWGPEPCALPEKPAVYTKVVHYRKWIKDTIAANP
T2 sequence (P07288 25-261 limits assumed): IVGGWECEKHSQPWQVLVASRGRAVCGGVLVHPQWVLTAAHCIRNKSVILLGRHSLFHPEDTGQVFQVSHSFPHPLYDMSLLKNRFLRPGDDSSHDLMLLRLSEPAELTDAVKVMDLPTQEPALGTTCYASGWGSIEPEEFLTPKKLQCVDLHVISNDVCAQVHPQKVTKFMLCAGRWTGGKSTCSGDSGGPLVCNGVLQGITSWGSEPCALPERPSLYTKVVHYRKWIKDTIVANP

B1: 111In-CHX-A''-DTPA-11B6 (antibody, V domains shown)
VH: DVQLQESGPGLVKPSQSLSLTCTVTGNSITSDYAWNWIRQFPGNRLEWMGYISYSGSTTYSPSLKSRFSITRDTSKNQFFLQLNSVTPEDTATYFCATGYYYGSGFWGQGTLVTVSS
VL: DIVLTQSPASLAVSLGQRATISCRASESVEYFGTSLMHWYRQKPGQPPKLLIYAASNVESGVPARFSGSGSGTDFSLNIQPVEEDDFSMYFCQQTRKVPYTFGGGTKLEIK
modifications: CHX-A''-DTPA chelator conjugated to the antibody and labelled with 111In; sites not stated
With B1 the “tumor uptake in hK2-expressing xenografts (LnCAP) against hK2-negative xenografts (DU145) at 48 hpi” value [1] was greater than 3 fold.

B2: 5A10-Fab (Fab, V domains shown)
VH: EVQLVESGPGILQPSQTLSLTCSFSGFSLSTTGMGVSWIRQPSGKGLEWLAHLYWDEDKRYNPSLKSRLTISEDSSRNQVFLKITSVGPADSATYYCARKGYYGYFDYWGQGTALTVSS
VL: DIVMTQSQKFMSTSVGDRVSVTCKASQNVNTDVAWYQQKPGQSPKALIFSTSYRSSGVPDRFTGSGSGTDFTLTITNVQSEDLAEYFCQQYSNYPLTFGAGTKVDLN
notes: also called exemplary 5A10-Fab; Fab fragment of anti-PSA antibody 5A10
B2: binds [2].

B3: mAb 11B6 (mouse monoclonal anti-hK2 antibody) (antibody, V domains shown)
VH: DVQLQESGPGLVKPSQSLSLTCTVTGNSITSDYAWNWIRQFPGNRLEWMGYISYSGSTTYSPSLKSRFSITRDTSKNQFFLQLNSVTPEDTATYFCATGYYYGSGFWGQGTLVTVSS
VL: DIVLTQSPASLAVSLGQRATISCRASESVEYFGTSLMHWYRQKPGQPPKLLIYAASNVESGVPARFSGSGSGTDFSLNIQPVEEDDFSMYFCQQTRKVPYTFGGGTKLEIK
notes: Whole mouse monoclonal antibody obtained from the University of Turku; also called m11B6; mouse mAb 11B6
A Kd [3] of roughly 1.2 nM was found for B3 in this work.
